Patent publication US20200317768A1 (published 2020)
Numbering of substitutions follows the chain as printed. Names may count otherwise.

B1: M103205H795-MY210/M103202L889-SK1 (antibody, human IgG1, kappa)
heavy: QVTLKESGPVLVKPTETLTLTCTVSGIDLSHDDISWVRQAPGKGLEWVGIISYAGSTYYASWAKGRLTISKDTSKNQVVLTMTNMDPVDTATYYCARGVPAYSHGGDLWGQGTLVTVSSASTKGPSVFPLAPSSKSTSGGTAALGCLVKDYFPEPVTVSWNSGALTSGVHTFPAVLQSSGLYSLSSVVTVPSSSLGTQTYICNVNHKPSNTKVDKKVEPKSCDKTHTCPPCPAPELLNGPSVFLFPPKPKDTLMISRTPEVTCVVVDVSDEDPEVKFNWYVDGVEVHNAKTKPREEQYNSTYRVVSVLTVLHQDWLNGKEYKCKVSNTALPKPIEKTISKAKGQPREPQVYTLPPSREEMTKNQVSLTCLVKGFYPSDIAVEWESNGQPENNYKTTPPVLDSDGSFFLYSKLTVDKSRWQQGNVFSCSVMHEALHNHYTQKSLSLSP
light: DIVMTQSPATLSLSPGERATLSCTSSQSVYHANWLSWFQQKPGQPPKLLIYWASTLAYGVPSRFSGSGSGTDFTLTISSLQPEDAATYYCAGGYGGGRYAFGQGTKVEIKRTVAAPSVFIFPPSDEQLKSGTASVVCLLNNFYPREAKVQWKVDNALQSGNSQESVTEQDSKDSTYSLSSTLTLSKADYEKHKVYACEVTHQGLSSPVTKSFNRGEC
notes: Substitutions introduced into M103205H795-SG1; expressed with M103202L889-SK1 as light chain
B2: M103205H795-MY211/M103202L889-SK1 (antibody, human IgG1, kappa)
heavy: B1 heavy with S241V
light: B1 light
notes: as for B1
B3: M103205H795-MY212/M103202L889-SK1 (antibody, human IgG1, kappa)
heavy: B1 heavy with S241V, Q297L
light: B1 light
notes: as for B1
B4: M103205H795-MY288/M103202L889-SK1 (antibody, human IgG1, kappa)
heavy: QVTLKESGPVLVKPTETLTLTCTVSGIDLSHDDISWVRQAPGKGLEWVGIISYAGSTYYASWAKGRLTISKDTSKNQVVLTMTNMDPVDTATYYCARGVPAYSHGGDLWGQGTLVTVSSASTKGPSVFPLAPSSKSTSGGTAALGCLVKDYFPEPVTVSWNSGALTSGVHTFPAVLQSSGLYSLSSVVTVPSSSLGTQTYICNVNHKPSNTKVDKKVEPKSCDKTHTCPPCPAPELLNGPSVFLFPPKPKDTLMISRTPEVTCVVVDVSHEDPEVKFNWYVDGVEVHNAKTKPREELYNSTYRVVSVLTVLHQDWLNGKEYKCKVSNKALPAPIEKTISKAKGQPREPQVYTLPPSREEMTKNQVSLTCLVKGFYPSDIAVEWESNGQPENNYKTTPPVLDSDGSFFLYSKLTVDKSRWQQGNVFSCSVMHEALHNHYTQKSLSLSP
light: B1 light
notes: as for B1
B5: M103205H795-MY289/M103202L889-SK1 (antibody, human IgG1, kappa)
heavy: B1 heavy with D270H, T328K, P398M
light: B1 light
notes: as for B1
B6: M103205H795-MY330/M103202L889-SK1 (antibody, human IgG1, kappa)
heavy: B1 heavy with L237W, D270E, T328K, P398M
light: B1 light
notes: as for B1
B7: M103205H795-MY434/M103202L889-SK1 (antibody, human IgG1, kappa)
heavy: B1 heavy with L237W, T328K
light: B1 light
notes: as for B1
B8: M103205H795-MY440/M103202L889-SK1 (antibody, human IgG1, kappa)
heavy: B1 heavy with L237W, Q297L, T328K
light: B1 light
notes: as for B1
B9: M103205H795-MY538/M103202L889-SK1 (Table 19: L235W/G236N/H268D/Q295L/K326T/A330K) (antibody, human IgG1, kappa)
heavy: B1 heavy with L237W, Q297L
light: B1 light
notes: also called MY518 (as the text names this set of substitutions)

Experiments:
Assay in all cases: SPR (Biacore), antibody captured, FcgR analyte
[1] = target: T1, cynomolgus monkey FcγRIIa1 extracellular domain, C-terminal His-tag (cynomolgus monkey)
T1 construct: also called cyno FcγRIIa1; cynoFcgRIIa1
T1 chain: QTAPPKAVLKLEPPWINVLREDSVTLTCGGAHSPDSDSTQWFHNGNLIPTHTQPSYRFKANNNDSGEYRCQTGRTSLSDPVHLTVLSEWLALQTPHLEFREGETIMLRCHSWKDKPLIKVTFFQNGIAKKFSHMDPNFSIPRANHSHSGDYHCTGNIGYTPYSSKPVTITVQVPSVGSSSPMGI
Procedure: (§1) The kinetic analysis of interactions between these antibodies and FcγR was carried out using BIACORE® T200 or BIACORE® 4000 (GE Healthcare). HBS-EP+ (GE Healthcare) was used as the running buffer, and the measurement temperature was set to 25° C. A chip produced by immobilizing Protein A. Protein A/G or mouse anti-human IgG kappa light chain (BD Biosciences) onto a Series S Sensor Chip CM4 or CM5 (GE Healthcare) by the amine-coupling method was used. […] After the measurement, the antibody captured on the chip was washed off by allowing reaction with 10 mM glycine-HCl, pH1.5 and 25 mM NaOH so that the chip was regenerated and used repeatedly. The sensorgrams obtained as measurement results were analyzed by the 1:1 Langmuir binding model using the BIACORE® Evaluation Software to calculate the binding rate constant ka (L/mol/s) and dissociation rate constant kd (l/s), and the dissociation constant KD (mol/L) was calculated from these values. […] Regarding such interactions, KD values were calculated using the following 1:1 binding model described in BIACORE® T100 Software Handbook BR1006-48 Edition AE.
(§2) The behavior of interacting molecules according to the 1:1 binding model on BIACORE® can be described by Equation 1: Req=C·R max/(KD+C)+RI, wherein, Req is a plot of steady-state binding levels to analyte concentration. C is concentration, RI is bulk refractive index contribution in the sample, and Rmax is analyte binding capacity of the surface. When this equation is rearranged, KD can be expressed as Equation 2: KD=C·Rmax/(Req−RI)−C. KD can be calculated by substituting the values of Rmax, RI, and C into Equation 1 or Equation 2. From the current measurement conditions, RI=0, C=2 μmol/L can be used.

[2] = target: T2, cynomolgus monkey FcγRIIa2 extracellular domain, C-terminal His-tag (cynomolgus monkey)
T2 construct: also called cyno FcγRIIa2; cynoFcgRIIa2
T2 chain: T1 chain with P95T, T121A, I127K, A128S, K130N, D135N, R142Q
Procedure: as §1, §2

[3] = target: T3, cynomolgus monkey FcγRIIa3 extracellular domain, C-terminal His-tag (cynomolgus monkey)
T3 construct: also called cyno FcγRIIa3; cynoFcgRIIa3
T3 chain: T1 chain with P95T, T121A, A128S, H133P, D135N
Procedure: as §1, §2

[4] = target: T4, cynomolgus monkey FcγRIIb extracellular domain, C-terminal His-tag (cynomolgus monkey)
T4 construct: also called cyno FcγRIIb; cynoFcγRIIb
T4 chain: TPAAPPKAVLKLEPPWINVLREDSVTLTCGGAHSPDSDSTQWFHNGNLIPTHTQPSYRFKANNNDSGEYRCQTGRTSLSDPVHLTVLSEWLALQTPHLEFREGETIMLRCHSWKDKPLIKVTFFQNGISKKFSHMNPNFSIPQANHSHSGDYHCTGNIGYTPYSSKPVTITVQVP
Procedure: as §1, §2

[5] = target: T5, cynomolgus monkey FcγRIIIaS extracellular domain, C-terminal His-tag (cynomolgus monkey, UniProt Q8SPW2 21-206 at identity 1.00))
T5 construct: also called cyno FcγRIIIaS; cynoFcγRIIIaS
T5 chain: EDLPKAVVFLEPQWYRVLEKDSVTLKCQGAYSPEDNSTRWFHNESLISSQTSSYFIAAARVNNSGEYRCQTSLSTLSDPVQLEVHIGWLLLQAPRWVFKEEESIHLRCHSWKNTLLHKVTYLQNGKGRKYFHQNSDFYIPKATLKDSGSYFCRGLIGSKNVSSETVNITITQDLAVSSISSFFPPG
Procedure: as §1, §2

[6] = target: T6, human FcγRIIaH extracellular domain, C-terminal His-tag (human, UniProt P12318 34-217)
T6 construct: also called human FcγRIIa (type H); FcgRIIaH
T6 sequence: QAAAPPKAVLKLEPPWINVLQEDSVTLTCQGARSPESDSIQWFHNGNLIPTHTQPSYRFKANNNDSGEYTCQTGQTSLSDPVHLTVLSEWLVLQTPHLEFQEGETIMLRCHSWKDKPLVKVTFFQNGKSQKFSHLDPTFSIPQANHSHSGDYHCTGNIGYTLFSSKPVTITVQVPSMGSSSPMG
Procedure: as §1, §2

[7] = target: T7, human FcγRIIaR extracellular domain, C-terminal His-tag (human, UniProt P12318 34-217)
T7 construct: also called human FcγRIIa (type R); FcgRIIaR
T7 chain: T6 sequence with H134R
Procedure: as §1, §2

[8] = target: T8, human FcγRIIb extracellular domain, C-terminal His-tag (human, UniProt P31994 43-217)
T8 construct: also called human FcgRIIb; FcgRIIb
T8 sequence: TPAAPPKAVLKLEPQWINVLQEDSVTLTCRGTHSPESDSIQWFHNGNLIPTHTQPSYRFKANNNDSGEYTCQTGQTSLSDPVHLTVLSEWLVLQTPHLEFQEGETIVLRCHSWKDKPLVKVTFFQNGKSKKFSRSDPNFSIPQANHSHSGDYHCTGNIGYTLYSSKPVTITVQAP
Procedure: as §1, §2

[9] = target: T9, human FcγRIIIaV extracellular domain, C-terminal His-tag (human, UniProt P08637 17-208)
T9 construct: also called human FcgRIIIaV; FcgRIIIaV
Procedure: as §1, §2

T9 sequence (P08637 17-208 F176V): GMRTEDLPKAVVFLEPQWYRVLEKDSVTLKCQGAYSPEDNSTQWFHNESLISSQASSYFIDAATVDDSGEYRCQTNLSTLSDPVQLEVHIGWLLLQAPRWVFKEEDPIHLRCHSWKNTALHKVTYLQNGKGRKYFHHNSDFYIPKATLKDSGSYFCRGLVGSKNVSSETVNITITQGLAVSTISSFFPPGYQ

Binder	Kd [1]	Kd [2]	Kd [3]	Kd [4]	Kd [5]	Kd [6]	Kd [7]	Kd [8]	Kd [9]
B1	950 nM	840 nM	23000 nM	250 nM	2400 nM	880 nM	14 nM	980 nM	51000 nM
B2	750 nM	530 nM	2700 nM	470 nM	5000 nM	1100 nM	13000 nM	520 nM	4800 nM
B3	560 nM	530 nM	29000 nM	370 nM	2600 nM	800 nM	1300 nM	630 nM	6500 nM
B4	1500 nM	2000 nM	11000 nM	3200 nM	13000 nM	1400 nM	8500 nM	6200 nM	68000 nM
B5	1300 nM	1500 nM	86000 nM	740 nM	5200 nM	830 nM	5500 nM	2900 nM	7700 nM
B6	2200 nM	2200 nM	4700 nM	610 nM	6600 nM	960 nM	900 nM	670 nM	12000 nM
B7	2900 nM	2400 nM	64000 nM	740 nM	11000 nM	16000 nM	1900 nM	1400 nM	16000 nM
B8	1600 nM	1800 nM	48000 nM	460 nM	9300 nM	910 nM	11000 nM	800 nM	27000 nM
B9	890 nM	900 nM	2400 nM	260 nM	4200 nM	850 nM	670 nM	480 nM	23000 nM
